Laboratory results reported in PMC7660097, “Structural Insights into the Interactions of Candidal Enolase with Human Vitronectin, Fibronectin and Plasminogen” (International Journal of Molecular Sciences, 2020).

B1: C. albicans cytosolic enolase (enzyme, UniProt P30575 1-440, looked up)
chain: MSYATKIHARYVYDSRGNPTVEVDFTTDKGLFRSIVPSGASTGVHEALELRDGDKSKWLGKGVLKAVANVNDIIAPALIKAKIDVVDQAKIDEFLLSLDGTPNKSKLGANAILGVSLAAANAAAAAQGIPLYKHIANISNAKKGKFVLPVPFQNVLNGGSHAGGALAFQEFMIAPTGVSTFSEALRIGSEVYHNLKSLTKKKYGQSAGNVGDEGGVAPDIKTPKEALDLIMDAIDKAGYKGKVGIAMDVASSEFYKDGKYDLDFKNPESDPSKWLSGPQLADLYEQLISEYPIVSIEDPFAEDDWDAWVHFFERVGDKIQIVGDDLTVTNPTRIKTAIEKKAANALLLKVNQIGTLTESIQAANDSYAAGWGVMVSHRSGETEDTFIADLSVGLRSGQIKTGAPARSERLAKLNQILRIEEELGSEAIYAGKDFQKASQL
modifications: biotin (biotin-labeled enolase) in the microplate assays
notes: Enolase of Candida albicans (strain ATCC 10231), cytosolic form; identified by LC-MS/MS; also called C. albicans enolase, cytosol; source: purified from C. albicans ATCC 10231 cytosol (ammonium sulphate fractionation, MonoQ, MonoS)
B2: human vitronectin (natural protein)
chain: DQESCKGRCTEGFNVDKKCQCDELCSYYQSCCTDYTAECKPQVTRGDVFTMPEDEYTVYDDGEEKNNATVHEQVGGPSLTSDLQAQSKGNPEQTPVLKPEEEAPAPEVGASKPEGIDSRPETLHPGRPQPPAEEELCSGKPFDAFTDLKNGSLFAFRGQYCYELDEKAVRPGYPKLIRDVWGIEGPIDAAFTRINCQGKTYLFKGSQYWRFEDGVLDPDYPRNISDGFDGIPDNVDAALALPAHSYSGRERVYFFKGKQYWEYQFQHQPSQEECEGSSLSAVFEHFAMMQRDSWEDIFELLFWGRTSAGTRQPQFISRDWHGVPGQVDAAMAGRIYISGMAPRPSLAKKQRFRHRNRKGYRSQRGHSRGRNQNSRRPSRATWLSLFSSEESNLGANNYDDYRMDWLVPATCEPIQSVFFFSGDKYYRVNLRTRRVDTVDPPYPRSIAQYWLGCPAPGHL
modifications: biotin (NHS-biotin) in the cell-binding assays of Figure 1; sulfo-SDAD on amino groups in the cross-linking
notes: Vitronectin, human; also called VTR; VTR-Bt; source: bought: R&D Systems
B3: C. tropicalis cytosolic enolase (enzyme, UniProt C5MD83 1-440, looked up)
chain: MSYATKIHARTVYDSRGNPTVEVELTTDNGMFRSIVPSGASTGIHEALELRDGDKSKWLGKGVLKAVSNVNDIIAPALIDAKIDVNDQSKIDEFMIKLDGTPNKSKLGANAILGVSLAAANAAAANQGIPLYQHIANLSKSKKDKYVLPVPFQNVLNGGAHAGGDLAFQEFMIVPTGAESFSEAMRIDSEVYHTLKSLAKKKYGQSAGNVGDEGGVAPDLRTPEEALDLIVESIEQAGHTGKVKIAMDPASSEFFKDGKYDLDFKNPNPDPAKRLSGKELAELYERLINKYPIVLLEDPFAEDDWDAWVHFFKIVGDKVQIVADDLTVTNPIRIKKAIEKKCANALLVKVNQIGTLSESIVAANDAFGAGWGVMVSHRSGETEDTFIADLVVGLRAGQIKTGAPARSERLAKLNQILRIEESLGDDAIYAGKNFAVAHQL
modifications: biotin (biotin-labeled enolase) in the microplate assays
notes: Enolase of Candida tropicalis (strain T1, ATCC MYA-3404), cytosolic form; identified by LC-MS/MS; also called C. tropicalis enolase, cytosol; source: purified from C. tropicalis T1 (ATCC MYA-3404) cytosol (ammonium sulphate fractionation, MonoQ, MonoS)

Columns and labels:
human vitronectin = target: B2; assay: SPR; BIACORE 3000; enolase amine-coupled to a CM5 chip (about 300 RU); human protein as analyte (40-750 nM or 75-750 nM), 30 µL/min, 25 °C, 10 mM HEPES, 150 mM NaCl, 0.005% P20, pH 7.4; 1:1 Langmuir global fit with baseline drift and local Rmax; regeneration 1 M NaCl; conditions: both partners purified
[1] = target: T1, C. albicans cell surface-exposed enolase (C. albicans, UniProt P30575 1-440, biotin (biotin-labeled enolase) in the microplate ligand-binding assay); assay: as above; conditions: both partners purified
T1 construct: Enolase of Candida albicans (strain ATCC 10231), form exposed at the cell surface; identified by LC-MS/MS, non-glycosylated, 47 kDa; Same protein as m2, isolated from another compartment; also called C. albicans enolase, cell wall; cell wall-associated enolase

Row | Binder | Kd (human vitronectin) | koff (human vitronectin) | kon (human vitronectin) | Kd [1] | koff [1] | kon [1]
1 | B1 | 55.3 nM | 0.00493 s⁻¹ | 89100 M⁻¹ s⁻¹ |  |  | 
2 | B2 |  |  |  | 31.1 nM | 0.00417 s⁻¹ | 134000 M⁻¹ s⁻¹
3 | B3 | 683 nM | 0.00915 s⁻¹ | 13400 M⁻¹ s⁻¹ |  |  | 
